# From the MegaScale stability set (Tsuboyama et al. 2023)
# B1: 2K2A (parent)
# chain: ELREAFRLYDKEGNGYISTDVMREILAELDETLSSEDLDAMIDEIDADGSGTVDFEEFMGVMT
# Variants of: B1
# Experiment: folding stability dG (cDNA display proteolysis); higher = more stable
# Conditions: PBS, room temperature
row,Variant,folding stability dG [kcal/mol]
1,ELREAFRLYDKEGNGYISTDVMREILAELDETLSSEDLGAMIDEIDADGSGTVDFEEFMGVMT [D39G],0.971
2,ELREAFRLYDKEGNGYISTDVMREILAELDETLSSEDLHAMIDEIDADGSGTVDFEEFMGVMT [D39H],1.13
3,ELREAFRLYDKEGNGYISTDVMREILAELDETLSSEDLAAMIDEIDADGSGTVDFEEFMGVMT [D39A],1.48
4,ELREAFRLYDKEGNGYISTDVMREILAELDETLSSEDLLAMIDEIDADGSGTVDFEEFMGVMT [D39L],1.3
5,ELREAFRLYDKEGNGYISTDVMREILAELDETLSSEDLCAMIDEIDADGSGTVDFEEFMGVMT [D39C],1.16
6,ELREAFRLYDKEGNGYISTDVMREILAELDETLSSEDLKAMIDEIDADGSGTVDFEEFMGVMT [D39K],1.48
7,ELREAFRLYDKEGNGYISTDVMREILAELDETLSSEDLEAMIDEIDADGSGTVDFEEFMGVMT [D39E],1.4
8,ELREAFRLYDKEGNGYISTDVMREILAELDETLSSEDLMAMIDEIDADGSGTVDFEEFMGVMT [D39M],1.32
9,ELREAFRLYDKEGNGYISTDVMREILAELDETLSSEDLIAMIDEIDADGSGTVDFEEFMGVMT [D39I],1.33
10,ELREAFRLYDKEGNGYISTDVMREILAELDETLSSEDLFAMIDEIDADGSGTVDFEEFMGVMT [D39F],1.15
11,ELREAFRLYDKEGNGYISTDVMREILAELDETLSSEDWDAMIDEIDADGSGTVDFEEFMGVMT [L38W],0.599
12,ELREAFRLYDKEGNGYISTDVMREILAELDETLSSEDRDAMIDEIDADGSGTVDFEEFMGVMT [L38R],0.432
13,ELREAFRLYDKEGNGYISTDVMREILAELDETLSSEDKDAMIDEIDADGSGTVDFEEFMGVMT [L38K],0.304
14,ELREAFRLYDKEGNGYISTDVMREILAELDETLSSEDIDAMIDEIDADGSGTVDFEEFMGVMT [L38I],1.99
15,ELREAFRLYDKEGNGYISTDVMREILAELDETLSSEDCDAMIDEIDADGSGTVDFEEFMGVMT [L38C],0.399
16,ELREAFRLYDKEGNGYISTDVMREILAELDETLSSEDSDAMIDEIDADGSGTVDFEEFMGVMT [L38S],-0.47
17,ELREAFRLYDKEGNGYISTDVMREILAELDETLSSEDVDAMIDEIDADGSGTVDFEEFMGVMT [L38V],1.52
18,ELREAFRLYDKEGNGYISTDVMREILAELDETLSSEDADAMIDEIDADGSGTVDFEEFMGVMT [L38A],0.262
19,ELREAFRLYDKEGNGYISTDVMREILAELDETLSSEDYDAMIDEIDADGSGTVDFEEFMGVMT [L38Y],0.134
20,ELREAFRLYDKEGNGYISTDVMREILAELDETLSSEDGDAMIDEIDADGSGTVDFEEFMGVMT [L38G],-0.721
21,ELREAFRLYDKEGNGYISTDVMREILAELDETLSSEDFDAMIDEIDADGSGTVDFEEFMGVMT [L38F],0.593
22,ELREAFRLYDKEGNGYISTDVMREILAELDETLSSEDQDAMIDEIDADGSGTVDFEEFMGVMT [L38Q],0.089

row,Variant,folding stability dG [kcal/mol]
1,ELREAFRLYDKEGNGYISTDVMREILAELDETLSSEDEDAMIDEIDADGSGTVDFEEFMGVMT [L38E],-0.551
2,ELREAFRLYDKEGNGYISTDVMREILAELDETLSSEDDDAMIDEIDADGSGTVDFEEFMGVMT [L38D],-0.787
3,ELREAFRLYDKEGNGYISTDVMREILAELDETLSSEDMDAMIDEIDADGSGTVDFEEFMGVMT [L38M],1.26
4,ELREAFRLYDKEGNGYISTDVMREILAELDETLSSEDTDAMIDEIDADGSGTVDFEEFMGVMT [L38T],0.114
5,ELREAFRLYDKEGNGYISTDVMREILAELDETLSSEDPDAMIDEIDADGSGTVDFEEFMGVMT [L38P],-0.322
6,ELREAFRLYDKEGNGYISTDVMREILAELDETLSSEDHDAMIDEIDADGSGTVDFEEFMGVMT [L38H],-0.529
7,ELREAFRLYDKEGNGYISTDVMREILAELDETLSSEQLDAMIDEIDADGSGTVDFEEFMGVMT [D37Q],2.1
8,ELREAFRLYDKEGNGYISTDVMREILAELDETLSSEHLDAMIDEIDADGSGTVDFEEFMGVMT [D37H],1.4
9,ELREAFRLYDKEGNGYISTDVMREILAELDETLSSEWLDAMIDEIDADGSGTVDFEEFMGVMT [D37W],1.56
10,ELREAFRLYDKEGNGYISTDVMREILAELDETLSSEELDAMIDEIDADGSGTVDFEEFMGVMT [D37E],2.08
11,ELREAFRLYDKEGNGYISTDVMREILAELDETLSSEYLDAMIDEIDADGSGTVDFEEFMGVMT [D37Y],1.26
12,ELREAFRLYDKEGNGYISTDVMREILAELDETLSSERLDAMIDEIDADGSGTVDFEEFMGVMT [D37R],1.82
13,ELREAFRLYDKEGNGYISTDVMREILAELDETLSSEILDAMIDEIDADGSGTVDFEEFMGVMT [D37I],1.65
14,ELREAFRLYDKEGNGYISTDVMREILAELDETLSSELLDAMIDEIDADGSGTVDFEEFMGVMT [D37L],1.59
15,ELREAFRLYDKEGNGYISTDVMREILAELDETLSSEALDAMIDEIDADGSGTVDFEEFMGVMT [D37A],1.86
16,ELREAFRLYDKEGNGYISTDVMREILAELDETLSSENLDAMIDEIDADGSGTVDFEEFMGVMT [D37N],1.32
17,ELREAFRLYDKEGNGYISTDVMREILAELDETLSSEFLDAMIDEIDADGSGTVDFEEFMGVMT [D37F],1.22
18,ELREAFRLYDKEGNGYISTDVMREILAELDETLSSESLDAMIDEIDADGSGTVDFEEFMGVMT [D37S],1.52
19,ELREAFRLYDKEGNGYISTDVMREILAELDETLSSEVLDAMIDEIDADGSGTVDFEEFMGVMT [D37V],1.66
20,ELREAFRLYDKEGNGYISTDVMREILAELDETLSSECLDAMIDEIDADGSGTVDFEEFMGVMT [D37C],2
21,ELREAFRLYDKEGNGYISTDVMREILAELDETLSSEGLDAMIDEIDADGSGTVDFEEFMGVMT [D37G],1.15
22,ELREAFRLYDKEGNGYISTDVMREILAELDETLSSEPLDAMIDEIDADGSGTVDFEEFMGVMT [D37P],-0.169

row,Variant,folding stability dG [kcal/mol]
1,ELREAFRLYDKEGNGYISTDVMREILAELDETLSSEKLDAMIDEIDADGSGTVDFEEFMGVMT [D37K],1.71
2,ELREAFRLYDKEGNGYISTDVMREILAELDETLSSETLDAMIDEIDADGSGTVDFEEFMGVMT [D37T],1.76
3,ELREAFRLYDKEGNGYISTDVMREILAELDETLSSEMLDAMIDEIDADGSGTVDFEEFMGVMT [D37M],1.96
4,ELREAFRLYDKEGNGYISTDVMREILAELDETLSPEDLDAMIDEIDADGSGTVDFEEFMGVMT [S35P],2.06
5,ELREAFRLYDKEGNGYISTDVMREILAELDETLSYEDLDAMIDEIDADGSGTVDFEEFMGVMT [S35Y],1.53
6,ELREAFRLYDKEGNGYISTDVMREILAELDETLSFEDLDAMIDEIDADGSGTVDFEEFMGVMT [S35F],1.48
7,ELREAFRLYDKEGNGYISTDVMREILAELDETLSKEDLDAMIDEIDADGSGTVDFEEFMGVMT [S35K],2.14
8,ELREAFRLYDKEGNGYISTDVMREILAELDETLSLEDLDAMIDEIDADGSGTVDFEEFMGVMT [S35L],1.69
9,ELREAFRLYDKEGNGYISTDVMREILAELDETLSMEDLDAMIDEIDADGSGTVDFEEFMGVMT [S35M],1.86
10,ELREAFRLYDKEGNGYISTDVMREILAELDETLSHEDLDAMIDEIDADGSGTVDFEEFMGVMT [S35H],1.82
11,ELREAFRLYDKEGNGYISTDVMREILAELDETLSIEDLDAMIDEIDADGSGTVDFEEFMGVMT [S35I],1.79
12,ELREAFRLYDKEGNGYISTDVMREILAELDETLSAEDLDAMIDEIDADGSGTVDFEEFMGVMT [S35A],1.92
13,ELREAFRLYDKEGNGYISTDVMREILAELDETLSGEDLDAMIDEIDADGSGTVDFEEFMGVMT [S35G],1.78
14,ELREAFRLYDKEGNGYISTDVMREILAELDETLSTEDLDAMIDEIDADGSGTVDFEEFMGVMT [S35T],1.81
15,ELREAFRLYDKEGNGYISTDVMREILAELDETLSNEDLDAMIDEIDADGSGTVDFEEFMGVMT [S35N],1.85
16,ELREAFRLYDKEGNGYISTDVMREILAELDETLSCEDLDAMIDEIDADGSGTVDFEEFMGVMT [S35C],1.64
17,ELREAFRLYDKEGNGYISTDVMREILAELDETLSEEDLDAMIDEIDADGSGTVDFEEFMGVMT [S35E],2.15
18,ELREAFRLYDKEGNGYISTDVMREILAELDETLSWEDLDAMIDEIDADGSGTVDFEEFMGVMT [S35W],1.48
19,ELREAFRLYDKEGNGYISTDVMREILAELDETLSQEDLDAMIDEIDADGSGTVDFEEFMGVMT [S35Q],2.05
20,ELREAFRLYDKEGNGYISTDVMREILAELDETLSREDLDAMIDEIDADGSGTVDFEEFMGVMT [S35R],1.96
21,ELREAFRLYDKEGNGYISTDVMREILAELDETLSVEDLDAMIDEIDADGSGTVDFEEFMGVMT [S35V],1.77
22,ELREAFRLYDKEGNGYISTDVMREILAELDETLSDEDLDAMIDEIDADGSGTVDFEEFMGVMT [S35D],1.92

row,Variant,folding stability dG [kcal/mol]
1,ELREAFRLYDKEGNGYISTDVMREILAELDETLSSCDLDAMIDEIDADGSGTVDFEEFMGVMT [E36C],1.85
2,ELREAFRLYDKEGNGYISTDVMREILAELDETLSSKDLDAMIDEIDADGSGTVDFEEFMGVMT [E36K],1.81
3,ELREAFRLYDKEGNGYISTDVMREILAELDETLSSQDLDAMIDEIDADGSGTVDFEEFMGVMT [E36Q],1.82
4,ELREAFRLYDKEGNGYISTDVMREILAELDETLSSFDLDAMIDEIDADGSGTVDFEEFMGVMT [E36F],1.83
5,ELREAFRLYDKEGNGYISTDVMREILAELDETLSSIDLDAMIDEIDADGSGTVDFEEFMGVMT [E36I],1.53
6,ELREAFRLYDKEGNGYISTDVMREILAELDETLSSLDLDAMIDEIDADGSGTVDFEEFMGVMT [E36L],1.66
7,ELREAFRLYDKEGNGYISTDVMREILAELDETLSSNDLDAMIDEIDADGSGTVDFEEFMGVMT [E36N],1.66
8,ELREAFRLYDKEGNGYISTDVMREILAELDETLSSWDLDAMIDEIDADGSGTVDFEEFMGVMT [E36W],1.87
9,ELREAFRLYDKEGNGYISTDVMREILAELDETLSSGDLDAMIDEIDADGSGTVDFEEFMGVMT [E36G],1.54
10,ELREAFRLYDKEGNGYISTDVMREILAELDETLSSDDLDAMIDEIDADGSGTVDFEEFMGVMT [E36D],1.89
11,ELREAFRLYDKEGNGYISTDVMREILAELDETLSSRDLDAMIDEIDADGSGTVDFEEFMGVMT [E36R],1.82
12,ELREAFRLYDKEGNGYISTDVMREILAELDETLSSHDLDAMIDEIDADGSGTVDFEEFMGVMT [E36H],1.65
13,ELREAFRLYDKEGNGYISTDVMREILAELDETLSSVDLDAMIDEIDADGSGTVDFEEFMGVMT [E36V],1.69
14,ELREAFRLYDKEGNGYISTDVMREILAELDETLSSPDLDAMIDEIDADGSGTVDFEEFMGVMT [E36P],1.04
15,ELREAFRLYDKEGNGYISTDVMREILAELDETLSSYDLDAMIDEIDADGSGTVDFEEFMGVMT [E36Y],1.81
16,ELREAFRLYDKEGNGYISTDVMREILAELDETLSSMDLDAMIDEIDADGSGTVDFEEFMGVMT [E36M],1.7
17,ELREAFRLYDKEGNGYISTDVMREILAELDETLSSTDLDAMIDEIDADGSGTVDFEEFMGVMT [E36T],1.82
18,ELREAFRLYDKEGNGYISTDVMREILAELDETLSSSDLDAMIDEIDADGSGTVDFEEFMGVMT [E36S],1.88
19,ELREAFRLYDKEGNGYISTDVMREILAELDETLSSADLDAMIDEIDADGSGTVDFEEFMGVMT [E36A],1.96
